Data published in patent publication US20020160403.

B1: huBUB1 protein (plasmid p337-50) (protein)
chain: MDTPENVLQMLEAHMQSYKGNDPLGEWERYIQWVEENFPENKEYLITLLEHLMKEFLDKKKYHNDPRFISYCLKFAEYNSDLHQFFEFLYNHGIGTLSSPLYIAWAGHLEAQGELQHASAVLQRGIQNQAEPREFLQQQYRLFQTRLTETHLPAQARTSEPLHNVQVLNQMITSKSNPGNNMACISKNQGSELSGVISSACDKESNMERRVITISKSEYSVHSSLASKVDVEQVVMYCKEKLIRGESEFSFEELRAQKYNQRRKHEQWVNEDRHYMKRKEANAFEEQLLKQKMDELHKKLHQVVETSHEDLPASQERSEVNPARMGPSVGSQQELRAPCLPVTYQQTPVNMEKNPREAPPVVPPLANAISAALVSPATSQSIAPPVPLKAQTVTDSMFAVASKDAGCVNKSTHEFKPQSGAEIKEGCETHKVANTSSFHTTPNTSLGMVQATPSKVQPSPTVHTKEALGFIMNMFQAPTLPDISDDKDEWQSLDQNEDAFEAQFQKNVRSSGAWGVNKIISSLSSAFHVFEDGNKENYGLPQPKNKPTGARTFGERSVSRLPSKPKEEVPHAEEFLDDSTVWGIRCNKTLAPSPKSPGDFTSAAQLASTPFHKLPVESVHILEDKENVVAKQCTQATLDSCEENMVVPSRDGKFSPIQEKSPKQALSSHMYSASLLRLSQPAAGGVLTCEAELGVEACRLTDTDAAIAEDPPDAIAGLQAEWMQMSSLGTVDAPNFIVGNPWDDKLIFKLLSGLSKPVSSYPNTFEWQCKLPAIKPKTEFQLGSKLVYVHHLLGEGAFAQVYEATQGDLNDAKNKQKFVLKVQKPANPWEFYIGTQLMERLKPSMQHMFMKFYSAHLFQNGSVLVGELYSYGTLLNAINLYKNTPEKVMPQGLVISFAMRMLYMIEQVHDCEIIHGDIKPDNFILGNGFLEQDDEDDLSAGLALIDLGQSIDMKLFPKGTIFTAKCETSGFQCVEMLSNKPWNYQIDYFGVAATVYCMLFGTYMKVKNEGGECKPEGLFRRLPHLDMWNEFFHVMLNIPDCHHLPSLDLLRQKLKKVFQQHYTNKIRALRNRLIVLLLECKRSRK
B2: HA-huBUB1 (protein)
chain: B1 chain

How the values were obtained:
[1] = target: FLAG-huBUB3 protein fusion (plasmid p322-1)
[2] = target: huBUB3 protein (untagged; expression plasmid p291-2, ~2.7 kb variant)
Sequence of huBUB3 protein (untagged; expression plasmid p291-2, ~2.7 kb variant) (chain, as listed by the source mutant): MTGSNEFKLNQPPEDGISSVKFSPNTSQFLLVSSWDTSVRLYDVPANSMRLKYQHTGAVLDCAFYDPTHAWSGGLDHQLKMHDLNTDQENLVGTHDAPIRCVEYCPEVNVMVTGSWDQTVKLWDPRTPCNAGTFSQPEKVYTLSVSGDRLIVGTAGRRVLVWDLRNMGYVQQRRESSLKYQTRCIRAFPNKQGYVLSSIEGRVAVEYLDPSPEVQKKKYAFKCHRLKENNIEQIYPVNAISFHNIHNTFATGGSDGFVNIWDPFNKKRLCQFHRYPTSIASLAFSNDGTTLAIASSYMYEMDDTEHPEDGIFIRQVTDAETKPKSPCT

Sequence of FLAG-huBUB3 protein fusion (plasmid p322-1) (chain, as listed by the source): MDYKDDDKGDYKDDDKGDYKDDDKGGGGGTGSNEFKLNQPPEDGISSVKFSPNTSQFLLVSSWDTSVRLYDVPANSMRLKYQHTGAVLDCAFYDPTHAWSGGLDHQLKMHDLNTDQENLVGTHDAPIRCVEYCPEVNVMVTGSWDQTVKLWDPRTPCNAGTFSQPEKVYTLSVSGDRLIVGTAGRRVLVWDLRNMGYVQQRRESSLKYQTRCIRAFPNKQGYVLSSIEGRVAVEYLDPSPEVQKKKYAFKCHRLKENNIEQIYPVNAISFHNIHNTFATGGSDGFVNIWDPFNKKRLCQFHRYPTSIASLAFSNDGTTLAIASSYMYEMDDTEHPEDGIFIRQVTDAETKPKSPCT

| Protein | in vitro kinase activity towards test proteins (PHAS-I) | phosphorylation in kinase reactions [1] | huBUB1 auto-phosphorylation [2] | phosphorylation in kinase reactions [2] |
| --- | --- | --- | --- | --- |
| B1 | identified PHAS-I as an in vitro substrate of the huBUB1 kinase |  |  |  |
| B2 |  | only HA-huBUB1 auto-phosphorylation was observed in kinase reactions containing these proteins | did not reproducibly stimulate or inhibit huBUB1 auto-phosphorylation | only HA-huBUB1 auto-phosphorylation was observed in kinase reactions containing these proteins |
